We go through 1 molecule from patent US20170253660A1 (Memorial Sloan Kettering, published 2017).

For test [1], the target named is T1, human CD16 Fc receptor on NK92-MI cells (human, UniProt P08637 17-254). Kind of test: cell-based or functional assay.
Test [2] has as its target human CD32 Fc receptor on NK92-MI cells (human). Kind of test: cell-based or functional assay.
The target in test [3] is T1, human CD16 Fc receptor on NK92-MI cells. Kind of test: cell-based or functional assay. The source holds these as a separate data set.
Test [4] deals with human CD32 Fc receptor on NK92-MI cells (human). Kind of test: cell-based or functional assay. The source holds these as a separate data set.
The target in test [5] is T1, human CD16 Fc receptor on NK92-MI cells. Nature of the test: cell-based or functional assay. This is another data set of the same source.
The target in test [6] is human CD32 Fc receptor on NK92-MI cells (human). Kind of test: cell-based or functional assay. The source holds these as a separate data set.
The target in the next test is human N-CAM (human, UniProt P13591 20-718, limits assumed). Kind of test: Western blots and SPR (data not shown).
The target in another test is T2, FcRIII 158V (UniProt P08637 17-208).
T2 construct: Recombinant FcR on a CM5 chip; also called CD16-158V; FcR3A
Nature of the test: SPR, BIACORE T-100; antibody flowed over recombinant FcR on CM5 chip. The protocol: (§1) TABLE 14 Relative affinity. KD was determined by flowing antibodies over recombinant FcR on CM5 chip using BIACORE T-100. All values were normalized to hu3F8-IgG1 binding on FcRIII-158F.
(In general: SPR reads the build-up and loss of mass on a sensor chip optically.)

The next test addresses T3, FcRIII 158F (UniProt P08637 17-208, limits assumed).
T3 construct: Recombinant FcR on a CM5 chip; also called FcR3A
The description is as above. The protocol:
as §1

A further test deals with T4, FcRIII CD16B (UniProt O75015 17-200, limits assumed).
T4 construct: Recombinant FcR on a CM5 chip
Described as above. The protocol:
as §1

For a further test, the target named is T5, FcRII 131H (UniProt P12318 36-218).
T5 construct: Recombinant FcR on a CM5 chip; also called FcR2A
T5 sequence (looked up): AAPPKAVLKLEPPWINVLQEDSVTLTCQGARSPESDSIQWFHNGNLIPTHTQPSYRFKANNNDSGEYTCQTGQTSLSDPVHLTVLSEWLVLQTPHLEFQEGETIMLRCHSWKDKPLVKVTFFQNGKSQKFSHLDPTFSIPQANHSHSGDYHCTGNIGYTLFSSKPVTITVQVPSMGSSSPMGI
The test is described as above. Here is the method:
as §1

The target of another test is T6, FcRII 131R (UniProt P12318 36-218).
T6 construct: Recombinant FcR on a CM5 chip; also called FcR2A
T6 sequence (looked up): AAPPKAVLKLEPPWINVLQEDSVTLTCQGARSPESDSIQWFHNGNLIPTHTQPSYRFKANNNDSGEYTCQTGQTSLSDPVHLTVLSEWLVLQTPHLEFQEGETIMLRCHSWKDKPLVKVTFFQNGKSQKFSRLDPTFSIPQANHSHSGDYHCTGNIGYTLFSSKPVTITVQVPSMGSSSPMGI
Described as above. The protocol:
as §1

A further test has as its target T7, FcRII CD32B (UniProt P31994 46-217).
T7 construct: Recombinant FcR on a CM5 chip; also called FcR2B
T7 sequence (looked up): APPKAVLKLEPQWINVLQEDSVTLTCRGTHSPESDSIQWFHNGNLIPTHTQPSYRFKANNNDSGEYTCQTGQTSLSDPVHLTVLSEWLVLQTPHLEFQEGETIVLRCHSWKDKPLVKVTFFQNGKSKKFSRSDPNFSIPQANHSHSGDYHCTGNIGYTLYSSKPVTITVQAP
Described as above. Here is the method:
as §1

T1 sequence (P08637 17-254): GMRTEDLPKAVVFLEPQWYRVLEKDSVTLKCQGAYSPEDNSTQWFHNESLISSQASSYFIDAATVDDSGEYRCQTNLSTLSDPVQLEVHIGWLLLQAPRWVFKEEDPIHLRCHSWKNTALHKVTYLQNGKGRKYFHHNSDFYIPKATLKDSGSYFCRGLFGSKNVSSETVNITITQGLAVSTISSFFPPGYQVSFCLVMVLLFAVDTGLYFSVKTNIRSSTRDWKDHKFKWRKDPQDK
Chain of human N-CAM (P13591 20-718 limits assumed): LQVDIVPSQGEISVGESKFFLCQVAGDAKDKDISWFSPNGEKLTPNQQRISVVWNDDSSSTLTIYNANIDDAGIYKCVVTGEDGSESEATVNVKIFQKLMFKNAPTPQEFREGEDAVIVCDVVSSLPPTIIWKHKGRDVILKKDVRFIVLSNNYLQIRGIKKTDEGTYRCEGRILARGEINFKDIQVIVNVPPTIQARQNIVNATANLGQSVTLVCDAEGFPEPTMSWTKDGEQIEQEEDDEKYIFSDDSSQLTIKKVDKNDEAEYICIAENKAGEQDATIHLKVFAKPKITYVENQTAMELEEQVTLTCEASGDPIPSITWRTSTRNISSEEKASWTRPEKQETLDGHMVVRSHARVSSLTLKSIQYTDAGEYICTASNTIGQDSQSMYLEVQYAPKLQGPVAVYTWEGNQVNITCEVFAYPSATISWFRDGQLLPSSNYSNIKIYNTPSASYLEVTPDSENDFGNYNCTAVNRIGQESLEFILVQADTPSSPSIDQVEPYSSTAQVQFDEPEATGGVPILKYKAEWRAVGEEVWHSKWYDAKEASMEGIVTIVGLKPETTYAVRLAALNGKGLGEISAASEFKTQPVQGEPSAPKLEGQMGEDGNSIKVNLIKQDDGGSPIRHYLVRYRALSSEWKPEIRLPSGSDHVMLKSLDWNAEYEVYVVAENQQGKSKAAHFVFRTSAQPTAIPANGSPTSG
T2 sequence (P08637 17-208 F176V limits assumed): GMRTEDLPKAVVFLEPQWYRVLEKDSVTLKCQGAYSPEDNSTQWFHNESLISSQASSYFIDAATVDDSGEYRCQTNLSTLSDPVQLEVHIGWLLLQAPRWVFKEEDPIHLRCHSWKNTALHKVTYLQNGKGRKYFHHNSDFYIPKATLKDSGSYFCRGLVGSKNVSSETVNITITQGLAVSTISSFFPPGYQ
T4 sequence (O75015 17-200 limits assumed): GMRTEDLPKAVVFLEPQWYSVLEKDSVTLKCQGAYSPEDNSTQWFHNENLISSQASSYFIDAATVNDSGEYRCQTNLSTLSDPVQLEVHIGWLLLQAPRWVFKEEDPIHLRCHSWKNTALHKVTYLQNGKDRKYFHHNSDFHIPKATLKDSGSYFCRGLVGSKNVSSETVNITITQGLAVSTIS
T3 sequence (P08637 17-208 limits assumed): as the sequence (P08637 17-208 F176V limits assumed) above, with V160F counted along it

B1: hu3F8-H1L1-IgG1 (antibody)
heavy: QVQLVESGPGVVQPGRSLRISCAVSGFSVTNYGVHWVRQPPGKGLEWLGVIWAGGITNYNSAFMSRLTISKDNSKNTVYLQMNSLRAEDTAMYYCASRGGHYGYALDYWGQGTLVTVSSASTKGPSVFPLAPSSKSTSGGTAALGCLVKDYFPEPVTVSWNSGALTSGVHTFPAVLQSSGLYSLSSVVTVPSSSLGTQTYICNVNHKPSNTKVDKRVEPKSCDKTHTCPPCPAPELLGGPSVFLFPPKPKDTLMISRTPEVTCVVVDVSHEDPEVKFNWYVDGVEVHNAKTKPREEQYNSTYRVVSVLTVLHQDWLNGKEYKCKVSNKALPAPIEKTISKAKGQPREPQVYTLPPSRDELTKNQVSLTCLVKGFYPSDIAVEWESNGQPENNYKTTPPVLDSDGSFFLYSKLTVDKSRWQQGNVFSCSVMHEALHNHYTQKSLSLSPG
light: EIVMTQTPATLSVSAGERVTITCKASQSVSNDVTWYQQKPGQAPRLLIYSASNRYSGVPARFSGSGYGTEFTFTISSVQSEDFAVYFCQQDYSSFGQGTKLEIKRTVAAPSVFIFPPSDEQLKSGTASVVCLLNNFYPREAKVQWKVDNALQSGNSQESVTEQDSKDSTYSLSSTLTLSKADYEKHKVYACEVTHQGLSSPVTKSFNRGEC
notes: Humanized 3F8, whole human IgG1 kappa, expressed in CHO-DG44; also called hu3F8-IgG1; hu3F8-IgG1-H1L1
With B1, the “CD16-ADCC against melanoma M14 targets” value in test [1] is ~20 fold against m3F8 or 14G.2a. In addition, the “ADCC against LAN-1 with CD32 as FcR” value in test [2] was approximately 10 fold against hu3F8-IgG1n. Further, the “CD32-ADCC against melanoma M14 targets” value in [2] was more than 10 fold against m3F8. Also, the “LAN1-CD16 Potency” value in test [3] was 12 relative to m3F8 (EC50 for 3F8/EC50 for MoAb). For the same molecule, the “LAN1-CD32 Potency” value in test [4] is 15 relative to m3F8 (EC50 for 3F8/EC50 for MoAb). Also, in test [5], the “M14-CD16 Potency” value is 20 relative to m3F8. Moreover, in test [6], the “M14-CD32 Potency” value is 31 relative to m3F8. Moreover, the binding result with human N-CAM is “no binding”. Besides, the “relative affinity (KD normalized to hu3F8-IgG1 binding on FcRIII-158F)” value with FcRIII 158V came to 2.5 relative; with FcRIII 158F it was 1 relative; with FcRIII CD16B, 0.8 relative; with FcRII 131H, 2.1 relative; with FcRII 131R, 1 relative; with FcRII CD32B, 0.1 relative.
